The supplement of paper PMC10126150
± gives the standard deviation of the averaged measurements.

Each sequence was assayed on ATP (assay: switch fluorescence ratio, 500 uM ATP over buffer (Cy3 cluster intensity, sum of 5 cycles each) (fold (ratio)); higher = stronger signal-on switching upon ATP binding; sequences stand for … in TCGTCGGCAGCGTCAGATGTGTATAAGAGACAGTTTTTTTTTTTTTTTTTTTTTTTTT…TC). Details: aptamer strand: ATP DNA aptamer (quencher-CACCTGGGGGAGTATTGCGGAGGAAGG + anchor), 100 nM annealed; ATP concentration: 500 uM.
In short: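 The fluorescence ratio divides summed target-cycle Cy3 intensity by summed buffer-cycle Cy3 intensity for each cluster and is averaged per switch-domain sequence. Cy3-labelled switching-strand clusters on a modified Illumina MiSeq flow-cell were annealed to 100 nM quencher-labelled ATP aptamer, then imaged in selection buffer and again after 15 min with 500 uM ATP at 22 °C. Five such cycles were run, with NaOH stripping and re-annealing between them, and clusters outside 100-1000 RFU were excluded.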
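Also: ATP exposure 15 min at 22 °C before imaging.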

Point of comparison: AACTAGAGTT, switch fluorescence ratio 0.99 ± 0.014. Against it:
- TTTAAGGGG — within error, 1.02 ± 0.051
- TTTAATACGC — higher, 1.38 ± 0.26
- GTTTATCCGT — within error, 0.996 ± 0.055
- TTTTAGTGGC — within error, 1.02 ± 0.029
- GGACGGTCGG — within error, 1.01 ± 0.052
- AGCCGTGATG — higher, 1.06 ± 0.048
- ACTTCTCTTA — within error, 1.01 ± 0.013
- TACATGTAGC — within error, 0.986 ± 0.02
- TACGTAATTT — higher, 1.17 ± 0.018
- CGCGGGATGT — within error, 1.02 ± 0.045
- GTCGAAAGGA — lower, 0.9634 ± 0.0078
- GGATGTCGCG — higher, 1.0124 ± 0.001
- AAAATACGTT — higher, 1.23 ± 0.16
- GGGTTTAGGT — within error, 0.981 ± 0.011
- ACCTGTTTGT — within error, 1.01 ± 0.017
- ACTTGGCGCT — higher, 1.034 ± 0.0095
- GCAAATAGTT — within error, 0.993 ± 0.024
- GGGGGACAGG — within error, 1.05 ± 0.072
- CTCGTAATTG — higher, 1.09 ± 0.052
- GGGGTAAAAA — within error, 1.01 ± 0.018
- TTAATAAAC — within error, 1.01 ± 0.017
- TCGGGGAAAT — within error, 1.01 ± 0.023
- TGAGGGCGGG — within error, 1.03 ± 0.056
- TCGTTGGCTT — within error, 1 ± 0.011
- TAATTCCGGG — within error, 1.01 ± 0.013
- AGATTATGTT — within error, 1.01 ± 0.029
- TAGTTAGGGG — within error, 1.01 ± 0.058
- AGATTTCATA — within error, 0.985 ± 0.02
- TTCATTGTTA — within error, 1.03 ± 0.049
- TGTGAGCTGT — higher, 1.0077 ± 0.00016
- TCATTTATTT — within error, 0.98 ± 0.015
- AGATGTGGGA — within error, 1 ± 0.013
- TTTTTGTCGG — within error, 0.996 ± 0.026
- CATTAATGGG — within error, 1.01 ± 0.019
- AACACGGGTA — within error, 1.02 ± 0.055
- CGGGTTCAT — within error, 1.01 ± 0.028
- CATGCTGGG — within error, 0.992 ± 0.04
- AAGGGAATTT — within error, 1.17 ± 0.36
- CATTTAGAGG — within error, 1.007 ± 0.0073
- GTGATGGGTT — lower, 0.953 ± 0.014
- ATCACTCACT — higher, 1.18 ± 0.06
- CAAAATAAGA — within error, 1.01 ± 0.017
- TGGCCTAGG — within error, 1 ± 0.029
- ATCAATTCGA — higher, 1.021 ± 0.0038
- ACCTGGGGAT — higher, 1.028 ± 0.0099
- CCACTAGACC — higher, 1.14 ± 0.026
- CATCGGATAT — within error, 1.04 ± 0.052
- ATTTGCGAGG — within error, 1.01 ± 0.017
- AAGCTGAGAA — higher, 1.016 ± 0.0071
- TTTCTTTGGT — higher, 1.016 ± 0.0075
- TTCCAGTATT — within error, 1.05 ± 0.049
- AGGGACAAGG — within error, 1.014 ± 0.0095
- CGATGTAGTA — higher, 1.016 ± 0.0058
- CACAGCTAAA — higher, 1.09 ± 0.018
- GATCGCTCGG — within error, 1.01 ± 0.02
- ATTTATGAGG — within error, 1.01 ± 0.016
- CGATTTGTAA — the same, 0.99 ± 0.031
- AGACCTTCTT — higher, 1.51 ± 0.025
- GACGGAAGTT — within error, 1.004 ± 0.0017
- CTTGGGGGAA — within error, 0.964 ± 0.013
- AGGAAATTAT — within error, 1.01 ± 0.029
- CCGTACGGGG — higher, 1.029 ± 0.0055
- ACAGGGAAAG — higher, 1.04 ± 0.034
- TCGGGCGCAT — higher, 1.27 ± 0.026
- TGACTGGGGT — within error, 1.02 ± 0.068
- CGGCTTTATA — within error, 1.02 ± 0.028
- ACTAATGTTT — within error, 0.994 ± 0.036
- TAAGACGTCC — higher, 1.016 ± 0.0088
- TTCGAGAAGG — within error, 0.972 ± 0.018
- GTAGTACCGG — within error, 1.02 ± 0.028
- CGTGTGATGT — within error, 0.973 ± 0.03
- GGTGCTGAAG — within error, 1.01 ± 0.021
- GATAATTTTG — within error, 0.989 ± 0.027
- TTTTGTCTGC — within error, 0.98876 ± 0.00074
- TCTATCTTTA — within error, 0.996 ± 0.019
- CTCCGTTAGT — higher, 3.1 ± 0.065
- ACCGGGTGGG — within error, 1.12 ± 0.15
- TGAGGGCAAG — within error, 1.02 ± 0.022
- ACCAGGTATG — higher, 1.12 ± 0.016
- CGCGGGTGGT — higher, 1.02 ± 0.012
- GTGAGTAATT — within error, 1.02 ± 0.078
- CGAGGTCAGT — higher, 1.044 ± 0.01
- ACCAATAAAC — higher, 1.09 ± 0.033
- ATTACTTATC — within error, 1.02 ± 0.018
- GGGTGTTTTC — within error, 0.998 ± 0.034
- TTTGCCTTGC — higher, 1.11 ± 0.067
- TGGGCCGGGT — within error, 1.03 ± 0.055
- CTATTAGGTA — within error, 0.977 ± 0.0046
- GGGTTGGTAG — within error, 0.984 ± 0.026
- TCAGAATCTA — within error, 1 ± 0.015
- TTGTTCCAGC — within error, 0.985 ± 0.047
- CGCCCTCAAG — within error, 1.03 ± 0.029
- AGCTGTTTC — within error, 1 ± 0.018
- TAAATGGGGG — within error, 0.979 ± 0.034
- TTTTTTGCGA — within error, 1.06 ± 0.079
- AGCATATGAA — within error, 1.02 ± 0.071
- CAAGGGAGGG — within error, 0.991 ± 0.047
- TGTTTTTAGA — within error, 1.01 ± 0.019
- TTAAGTGGAA — within error, 0.997 ± 0.049
